Binding signal data for 18 molecules are collected here from publication PMC6555819, “Comprehensive study of nuclear receptor DNA binding provides a revised framework for understanding receptor specificity”.

The target in series [1] is PPARg:RXRa (Homo sapiens, UniProt P37231;P19793 full;full). The experiment in a line: no ligand; PBM; 180 nM : 90 nM RXRa; PBS pH 7.4, 2% milk, 0.02% Triton X-100, 1 mM DTT, BSA, 0.4 mg/ml salmon testes DNA. The settings on record: tags: His kept;His cleaved; copies: 1;1; label: surface-attached array probe.
Sequence of PPARg:RXRa (P37231 29-505, chain 1 of 2): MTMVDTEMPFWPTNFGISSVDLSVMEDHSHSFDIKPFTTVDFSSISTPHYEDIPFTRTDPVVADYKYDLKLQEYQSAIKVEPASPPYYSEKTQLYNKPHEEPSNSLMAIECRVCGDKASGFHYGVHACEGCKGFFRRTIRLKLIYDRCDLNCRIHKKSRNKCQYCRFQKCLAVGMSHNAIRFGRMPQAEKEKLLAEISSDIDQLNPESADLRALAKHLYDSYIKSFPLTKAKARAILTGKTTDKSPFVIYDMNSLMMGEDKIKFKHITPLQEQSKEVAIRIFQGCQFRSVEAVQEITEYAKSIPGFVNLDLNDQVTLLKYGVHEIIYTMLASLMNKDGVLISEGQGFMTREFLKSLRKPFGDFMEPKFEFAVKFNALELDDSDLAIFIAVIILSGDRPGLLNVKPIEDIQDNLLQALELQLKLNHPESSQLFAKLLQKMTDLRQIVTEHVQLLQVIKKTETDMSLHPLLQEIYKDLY
Sequence of PPARg:RXRa (P19793 whole entry, chain 2 of 2): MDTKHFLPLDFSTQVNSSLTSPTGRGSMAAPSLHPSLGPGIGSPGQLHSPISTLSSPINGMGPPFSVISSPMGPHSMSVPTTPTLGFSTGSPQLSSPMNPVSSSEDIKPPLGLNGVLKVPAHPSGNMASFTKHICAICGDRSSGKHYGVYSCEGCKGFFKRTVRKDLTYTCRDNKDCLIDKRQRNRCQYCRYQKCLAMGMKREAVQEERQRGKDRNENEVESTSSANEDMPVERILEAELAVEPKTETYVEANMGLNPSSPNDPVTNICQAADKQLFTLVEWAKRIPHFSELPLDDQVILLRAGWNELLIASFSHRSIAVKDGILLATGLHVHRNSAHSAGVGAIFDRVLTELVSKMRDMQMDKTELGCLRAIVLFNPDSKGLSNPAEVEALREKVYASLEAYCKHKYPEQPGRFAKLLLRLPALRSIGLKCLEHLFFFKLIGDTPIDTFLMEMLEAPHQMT
Series [2] deals with LXRa:RXRa (Homo sapiens, UniProt Q13133;P19793 full;full). The experiment in a line: no ligand; PBM; 270 nM : 90 nM RXRa; PBS pH 7.4, 2% milk, 0.02% Triton X-100, 1 mM DTT, BSA, 0.4 mg/ml salmon testes DNA. The settings on record: tags: His kept;His cleaved; copies: 1;1; label: surface-attached array probe. The method in brief: (§1)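 Probes were double-stranded and carried 34-nt variable regions with direct-repeat seeds, single-nucleotide variants, half-site ablations and random human genomic background sequences, printed on custom Agilent 4×180K protein-binding microarrays. Arrays were incubated 1 h with ligand-free nuclear receptor dimers in PBS pH 7.4, 2% milk, 0.02% Triton X-100, 1 mM DTT, 0.2 mg/mL BSA and 0.4 mg/ml salmon testes DNA. Antibodies against each partner (one per run) detected binding, and scanned fluorescence was regression-normalized. Binding z-scores use the random background probes as reference.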
Sequence of LXRa:RXRa (Q13133 whole entry, chain 1 of 2): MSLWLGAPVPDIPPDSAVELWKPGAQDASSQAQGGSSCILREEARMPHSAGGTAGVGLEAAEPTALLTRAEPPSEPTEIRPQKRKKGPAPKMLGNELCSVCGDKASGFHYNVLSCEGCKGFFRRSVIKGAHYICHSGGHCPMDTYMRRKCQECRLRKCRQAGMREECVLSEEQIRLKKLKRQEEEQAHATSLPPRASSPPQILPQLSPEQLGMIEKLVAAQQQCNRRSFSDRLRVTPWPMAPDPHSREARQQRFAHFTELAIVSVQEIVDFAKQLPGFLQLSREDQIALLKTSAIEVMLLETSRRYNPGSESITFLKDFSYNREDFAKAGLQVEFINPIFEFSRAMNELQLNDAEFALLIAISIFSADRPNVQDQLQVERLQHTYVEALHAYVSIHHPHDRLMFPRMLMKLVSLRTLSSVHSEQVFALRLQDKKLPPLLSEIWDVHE
Sequence of LXRa:RXRa (P19793 whole entry, chain 2 of 2): as the sequence (P19793 whole entry, chain 2 of 2) above

For series [3], the target named is FXR:RXRa (Homo sapiens, UniProt Q96RI1;P19793 full;full). The description is as above. The conditions noted are these: tags: His kept;His cleaved; copies: 1;1; label: surface-attached array probe. The method in brief: as §1
For series [4], the target named is PPARa:RXRa (Homo sapiens, UniProt Q07869;P19793 full;full). The series is described as above. The settings on record: tags: GST kept;His cleaved; copies: 1;1; label: surface-attached array probe. The method in brief:
as §1

The target of series [5] is PXR:RXRa (Homo sapiens, UniProt O75469;P19793 full;full). The description is as above. The conditions noted are these: tags: His kept;His cleaved; copies: 1;1; label: surface-attached array probe. The method in brief: as §1
Series [6] concerns the target RARg:RXRa (Homo sapiens, UniProt P13631;P19793 full;full). Described as above. The conditions noted are these: tags: His kept;His cleaved; copies: 1;1; label: surface-attached array probe. The procedure, abridged:
as §1

Series [7] concerns the target RXRa (Homo sapiens, UniProt P19793). The experiment in a line: no ligand; PBM; 180 nM; PBS pH 7.4, 2% milk, 0.02% Triton X-100, 1 mM DTT, BSA, 0.4 mg/ml salmon testes DNA. The conditions noted are these: tags: His cleaved; chain copies: 2; label: surface-attached array probe.
The target of series [8] is RARb:RXRa (Homo sapiens, UniProt P10826;P19793 full;full). The experiment in a line: no ligand; PBM; 270 nM : 90 nM RXRa; PBS pH 7.4, 2% milk, 0.02% Triton X-100, 1 mM DTT, BSA, 0.4 mg/ml salmon testes DNA. The settings on record: tags: His kept;His cleaved; copies: 1;1; label: surface-attached array probe. The procedure, abridged: as §1
Sequence of RARb:RXRa (P10826 whole entry, chain 1 of 2): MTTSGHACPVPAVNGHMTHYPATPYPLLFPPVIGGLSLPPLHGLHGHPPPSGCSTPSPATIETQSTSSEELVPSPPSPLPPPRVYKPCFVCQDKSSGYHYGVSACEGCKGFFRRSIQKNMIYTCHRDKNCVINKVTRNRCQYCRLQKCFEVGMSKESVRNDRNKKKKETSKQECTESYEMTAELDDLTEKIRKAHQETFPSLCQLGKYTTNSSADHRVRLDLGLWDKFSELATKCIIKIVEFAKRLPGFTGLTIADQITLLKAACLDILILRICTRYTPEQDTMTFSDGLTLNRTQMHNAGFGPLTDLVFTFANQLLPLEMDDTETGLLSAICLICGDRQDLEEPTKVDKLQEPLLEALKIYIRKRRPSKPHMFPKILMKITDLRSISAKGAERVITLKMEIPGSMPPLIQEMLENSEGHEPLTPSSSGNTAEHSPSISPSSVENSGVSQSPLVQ
Sequence of RARb:RXRa (P19793 whole entry, chain 2 of 2): as the sequence (P19793 whole entry, chain 2 of 2) above
Series [9] addresses LXRb:RXRa (Homo sapiens, UniProt P55055;P19793 full;full). The series is described as above. The settings on record: tags: His kept;His cleaved; copies: 1;1; label: surface-attached array probe. The procedure, abridged: as §1
The target in series [10] is VDR:RXRa (Homo sapiens, UniProt P11473;P19793 full;full). Described as above. The settings on record: tags: His kept;His cleaved; copies: 1;1; label: surface-attached array probe. The procedure, abridged: as §1

Sequence of PPARa:RXRa (Q07869 whole entry, chain 1 of 2): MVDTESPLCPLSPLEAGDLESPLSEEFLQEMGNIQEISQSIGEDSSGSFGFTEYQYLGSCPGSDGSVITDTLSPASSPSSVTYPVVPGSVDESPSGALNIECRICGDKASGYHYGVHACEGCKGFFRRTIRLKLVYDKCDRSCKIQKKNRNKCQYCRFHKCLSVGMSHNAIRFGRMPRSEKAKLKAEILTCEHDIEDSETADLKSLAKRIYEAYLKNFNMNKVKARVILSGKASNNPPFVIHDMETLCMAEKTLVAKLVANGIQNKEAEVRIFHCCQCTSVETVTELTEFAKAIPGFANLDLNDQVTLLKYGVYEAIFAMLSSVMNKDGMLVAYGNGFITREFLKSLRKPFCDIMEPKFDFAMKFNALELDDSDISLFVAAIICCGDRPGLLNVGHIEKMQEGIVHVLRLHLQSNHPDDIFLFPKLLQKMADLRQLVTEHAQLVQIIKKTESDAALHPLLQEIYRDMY
Sequence of PPARa:RXRa (P19793 whole entry, chain 2 of 2): as the sequence (P19793 whole entry, chain 2 of 2) above
Sequence of RARg:RXRa (P13631 whole entry, chain 1 of 2): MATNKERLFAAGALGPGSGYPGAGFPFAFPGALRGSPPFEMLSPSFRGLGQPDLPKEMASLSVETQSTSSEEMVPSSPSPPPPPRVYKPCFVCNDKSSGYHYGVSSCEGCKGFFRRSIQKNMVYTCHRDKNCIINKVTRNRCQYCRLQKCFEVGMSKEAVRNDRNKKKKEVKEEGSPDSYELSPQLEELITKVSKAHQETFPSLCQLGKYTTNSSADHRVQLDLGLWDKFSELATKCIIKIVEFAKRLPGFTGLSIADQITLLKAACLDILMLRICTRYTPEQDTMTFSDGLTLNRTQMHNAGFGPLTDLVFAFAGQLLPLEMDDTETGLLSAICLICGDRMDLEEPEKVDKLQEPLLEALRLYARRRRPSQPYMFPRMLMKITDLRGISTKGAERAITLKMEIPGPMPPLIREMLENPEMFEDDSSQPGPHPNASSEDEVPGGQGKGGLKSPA
Sequence of RARg:RXRa (P19793 whole entry, chain 2 of 2): as the sequence (P19793 whole entry, chain 2 of 2) above

B1: NRC3_wobSeed37_DR1_C6A_o1 (dsDNA)
DNA 1: GCCGTACAAGGTCAAAGGTCAGTGAAGAGATGACGGGCGATTGACAGCGTAGAATGAAGG
DNA 2: CCTTCATTCTACGCTGTCAATCGCCCGTCATCTCTTCACTGACCTTTGACCTTGTACGGC
For B1, the figures for the binding signal in series [1], in [2] and in [3] were 12.3 PBM z-score against 500 random probes, 7.38 PBM z-score against 500 random probes and 8.85 PBM z-score against 500 random probes, respectively.

B2: NRC3_wobSeed37_DR1_C6T_o1 (dsDNA)
DNA 1: GCCGTTCAAGGTCAAAGGTCAGTGAAGAGATGACGGGCGATTGACAGCGTAGAATGAAGG
DNA 2: CCTTCATTCTACGCTGTCAATCGCCCGTCATCTCTTCACTGACCTTTGACCTTGAACGGC
Take B2: the binding signal in series [1] was 11.8 PBM z-score against 500 random probes; in series [2], 7.33 PBM z-score against 500 random probes; in series [3], 8.83 PBM z-score against 500 random probes.

B3: NRC3_random_hg19_290_o1 (dsDNA)
DNA 1: GCGCCTCCATCTCAGGACTTGATTCTATTGAGTTAAGCGATTGACAGCGTAGAATGAAGG
DNA 2: CCTTCATTCTACGCTGTCAATCGCTTAACTCAATAGAATCAAGTCCTGAGATGGAGGCGC
For B3, the binding signal in series [1] was -0.43 PBM z-score against 500 random probes; in [4] it was -0.45 PBM z-score against 500 random probes; in series [5], -0.26 PBM z-score against 500 random probes; in [6], -0.59 PBM z-score against 500 random probes.

B4: NRC3_random_hg19_455_o1 (dsDNA)
DNA 1: GCCTGCAGTTTCTGTTTCCGTGGTCCAGGTTGAGCCGCGATTGACAGCGTAGAATGAAGG
DNA 2: CCTTCATTCTACGCTGTCAATCGCGGCTCAACCTGGACCACGGAAACAGAAACTGCAGGC
Consider B4, for which the binding signal was -2.08 PBM z-score against 500 random probes in series [1] and -0.33 PBM z-score against 500 random probes in series [5].

B5: NRC3_wobSeed13_DR0_C7A_o1 (dsDNA)
DNA 1: GCCGTCAAAGGTCAAGGTCAGTGAAAGAGACTCGAAGCGATTGACAGCGTAGAATGAAGG
DNA 2: CCTTCATTCTACGCTGTCAATCGCTTCGAGTCTCTTTCACTGACCTTGACCTTTGACGGC
Turning to B5, the binding signal in series [7] was 8.68 PBM z-score against 500 random probes; in [1], 9.87 PBM z-score against 500 random probes; in [8], 6.38 PBM z-score against 500 random probes; in [2], 7.37 PBM z-score against 500 random probes; in [4] it was 6.81 PBM z-score against 500 random probes; in [9] it was 6.31 PBM z-score against 500 random probes. The binding signal in series [3] was 9.06 PBM z-score against 500 random probes; in [6], 8.25 PBM z-score against 500 random probes.

B6: NRC3_random_hg19_479_o1 (dsDNA)
DNA 1: GCAAGTAAACAGCCCTCTAGCTTGGGTGGAAATGTGGCGATTGACAGCGTAGAATGAAGG
DNA 2: CCTTCATTCTACGCTGTCAATCGCCACATTTCCACCCAAGCTAGAGGGCTGTTTACTTGC
Take B6: the figures for the binding signal in [1] and in series [9] were -0.63 PBM z-score against 500 random probes and -0.48 PBM z-score against 500 random probes, respectively.

B7: NRC3_random_hg19_250_o1 (dsDNA)
DNA 1: GCCAAGACCATCCTGGCTAACACAGTGAAACCCTGTGCGATTGACAGCGTAGAATGAAGG
DNA 2: CCTTCATTCTACGCTGTCAATCGCACAGGGTTTCACTGTGTTAGCCAGGATGGTCTTGGC
Regarding B7, the binding signal in series [1] is 0.19 PBM z-score against 500 random probes; in series [8], -0.3 PBM z-score against 500 random probes; in series [10], -0.26 PBM z-score against 500 random probes; in [2] it was -0.15 PBM z-score against 500 random probes; in series [9], -0.42 PBM z-score against 500 random probes; in series [3], 0 PBM z-score against 500 random probes.

B8: NRC3_wobSeed33_DR1_A13T_o1 (dsDNA)
DNA 1: GCATCTCTAGGTTAAAGTTCAGTGAATCCCGAGGATGCGATTGACAGCGTAGAATGAAGG
DNA 2: CCTTCATTCTACGCTGTCAATCGCATCCTCGGGATTCACTGAACTTTAACCTAGAGATGC
Take B8: the binding signal in series [1] was 10 PBM z-score against 500 random probes; in series [5], 3.64 PBM z-score against 500 random probes.

B9: NRC3_wobSeed29_DR1_A7C_o1 (dsDNA)
DNA 1: GCGCTTCCGGGTCAAAGGTTATAGCATGAATAGAATGCGATTGACAGCGTAGAATGAAGG
DNA 2: CCTTCATTCTACGCTGTCAATCGCATTCTATTCATGCTATAACCTTTGACCCGGAAGCGC
As for B9, the binding signal in [1] was 12.4 PBM z-score against 500 random probes; in [5], 6.49 PBM z-score against 500 random probes.

B10: NRC3_wobSeed73_DR3_A6T_o1 (dsDNA)
DNA 1: GCCAATCTAGGTCACAGAGGTCAAAGTCCGTGCGTAGCGATTGACAGCGTAGAATGAAGG
DNA 2: CCTTCATTCTACGCTGTCAATCGCTACGCACGGACTTTGACCTCTGTGACCTAGATTGGC
Turning to B10, the binding signal in series [1] was 10.7 PBM z-score against 500 random probes; in [5], 7.27 PBM z-score against 500 random probes.

B11: NRC3_random_hg19_106_o1 (dsDNA)
DNA 1: GCAAGGAATGTAATCTAACTCTGTATTCAAAGAAGAGCGATTGACAGCGTAGAATGAAGG
DNA 2: CCTTCATTCTACGCTGTCAATCGCTCTTCTTTGAATACAGAGTTAGATTACATTCCTTGC
As for B11, the results for the binding signal in series [1] and in [2] were 0.5 PBM z-score against 500 random probes and -0.1 PBM z-score against 500 random probes, respectively.

B12: NRC3_wobSeed76_DR3_T21C_o1 (dsDNA)
DNA 1: GCCCTACTGGGCCAAAAAGGCCATTGATGCCGATAAGCGATTGACAGCGTAGAATGAAGG
DNA 2: CCTTCATTCTACGCTGTCAATCGCTTATCGGCATCAATGGCCTTTTTGGCCCAGTAGGGC
B12: the binding signal in series [1] is 0.38 PBM z-score against 500 random probes; in series [5], -0.08 PBM z-score against 500 random probes.

B13: NRC3_wobSeed66_DR2_A8G_o1 (dsDNA)
DNA 1: GCAATACGGGGTCACTAGGCCAGAGTAGGTACGAATGCGATTGACAGCGTAGAATGAAGG
DNA 2: CCTTCATTCTACGCTGTCAATCGCATTCGTACCTACTCTGGCCTAGTGACCCCGTATTGC
Regarding B13, the binding signal in series [7] is 8.8 PBM z-score against 500 random probes; in series [1], 10.2 PBM z-score against 500 random probes; in series [4] it was 7.26 PBM z-score against 500 random probes; in series [9] it was 6.54 PBM z-score against 500 random probes; in [3], 7.97 PBM z-score against 500 random probes.

B14: NRC3_wobSeed93_DR3_T11G_o1 (dsDNA)
DNA 1: GCAGTCAAAGGTCATCTAGGTAACGTAAGATATGCTGCGATTGACAGCGTAGAATGAAGG
DNA 2: CCTTCATTCTACGCTGTCAATCGCAGCATATCTTACGTTACCTAGATGACCTTTGACTGC
On to B14, for which the binding signal is 8.08 PBM z-score against 500 random probes in [7]; 10.1 PBM z-score against 500 random probes in series [1]; 6.16 PBM z-score against 500 random probes in series [8]; 7.01 PBM z-score against 500 random probes in series [2]; 7.57 PBM z-score against 500 random probes in [4]; 6.47 PBM z-score against 500 random probes in [9]. In addition, the binding signal in series [3] was 8.84 PBM z-score against 500 random probes; in series [6], 7.62 PBM z-score against 500 random probes.

B15: NRC3_random_hg19_319_o1 (dsDNA)
DNA 1: GCTCCCTGCCAGCCCTGGTCTGAAGCAAGCCTAGAGGCGATTGACAGCGTAGAATGAAGG
DNA 2: CCTTCATTCTACGCTGTCAATCGCCTCTAGGCTTGCTTCAGACCAGGGCTGGCAGGGAGC
Turning to B15, the binding signal in series [1] was -1.25 PBM z-score against 500 random probes; in series [5] it was -0.63 PBM z-score against 500 random probes.

B16: NRC3_random_hg19_499_o1 (dsDNA)
DNA 1: GCCATGTGGACTTCATTCGACCCAGCTGAGAAGACTGCGATTGACAGCGTAGAATGAAGG
DNA 2: CCTTCATTCTACGCTGTCAATCGCAGTCTTCTCAGCTGGGTCGAATGAAGTCCACATGGC
As to B16, the binding signal in [1] was 0.35 PBM z-score against 500 random probes; in series [2], 0.09 PBM z-score against 500 random probes; in series [9], 0.14 PBM z-score against 500 random probes.

B17: NRC3_random_hg19_169_o1 (dsDNA)
DNA 1: GCCTTCCCTGCTGCTTTGTTTACCTAAGCAAGCCTGGCGATTGACAGCGTAGAATGAAGG
DNA 2: CCTTCATTCTACGCTGTCAATCGCCAGGCTTGCTTAGGTAAACAAAGCAGCAGGGAAGGC
B17: the binding signal in series [1] was -1.09 PBM z-score against 500 random probes; in [8] it was -0.32 PBM z-score against 500 random probes; in series [2] it was -0.21 PBM z-score against 500 random probes.

B18: NRC3_random_hg19_68_o1 (dsDNA)
DNA 1: GCAGCAGTGAGGACCAATGGGCAGTCCAGGAGGAAAGCGATTGACAGCGTAGAATGAAGG
DNA 2: CCTTCATTCTACGCTGTCAATCGCTTTCCTCCTGGACTGCCCATTGGTCCTCACTGCTGC
Consider B18, for which the values for the binding signal in series [1] and in [2] were -0.26 PBM z-score against 500 random probes and -0.72 PBM z-score against 500 random probes, respectively.
